Test results from patent US20030216297A1, “Pharmaceutical composition” (SANKYO COMPANY, LIMITED, priority 2002, published 2003).

Assay: Serum concentration of OCIF after intravenous injection in rats
Format: in vivo
Details: Wistar female rat, single i.v. dose 0.5 mg OCIF/kg, 6 hours after administration
Experimental: Five-week old Wistar female rat (having a body weight of about 100 g) were made to abstain from food overnight. The preparation of OCIF and dextran sulfate prepared in either Preparation Example 1, Preparation Example 2 or Reference Example 1 which was to be tested was diluted to a concentration of 0.25 mg/ml with PBS (pH 7.4) containing 0.01% Polysorbate 80 to prepare an injectable solution, which was then administered to the tail of one of the test rats via a vein in a single dose at an injected level of 2 ml/kg body weight. 6 hours after administration, blood was taken from the heart of the rat. […]
After stirring gently using a shaking machine (Micro plate mixer NS-P: manufactured by Iuchi Seiei-Do Co Ltd.), the absorbance of each well at a wavelength of 450 nm was measured using a micro plate reader (SPECTRA THERMO: manufactured by TECAN). The OCIF concentration in the tested serum was then calculated from a calibration curve created using the standard OCIF solution. The dose was calculated as the dose of OCIF per kg body weight (mg/kg) by measuring the concentration of OCIF in each injection prepared in 1(a) in a similar manner to the case of the serum.
The OCIF in the serum obtained in 1(b) above was quantified for each sample according to the method described in 1(c) above.

**Q.** With “Prep. 4: OCIF/DS5 complex: DS5 130 mg/ml, OCIF 6.5 mg/ml, 4 °C, pH 10.5, 72 h” as the substance, how does the “Serum concentration (OCIF)” value read?
**A.** 370 ng/mL
